{"source": "patent US6462016", "about": "(SHISEIDO, dated 2002)", "target": "maxadilan (recombinant represented by SEQ ID NO: 2, peptide fragment GSIL- bound to the N-terminal cysteine … (Lutzomyia longipalpis (sand fly), UniProt P30659 24-86))", "test": "^125I-Max saturation binding and Scatchard plot, rabbit spleen crude membrane fraction, filtration", "data": [{"binder": "maxadilan receptor of the rabbit (maxadilan-specific receptor in crude membrane fractions from rabbit brain and rabbit spleen) (receptor) MAGVLQVSLAALLLLPAATAMHSDCIFKKEQALCLEKIQRANDLLGLNDSSPGCPGMWDNITCWKPAHVGEMVLVSCPELFRIFNPDQGEFDFAESTSLDLADMGVVSRNCTEDGWSEPFPHYFDACGFDEYESEPGDQDYYYLSVKALYTVGYSTSLVTLTTAMVILCRFRKLHCTRNFIHMNLFVSFMLRAISVFIKDWILYAEQDSNHCFVSTVECKAVMVFFHYCVVSNYFWLFIEGLYLFTLLVETFFPERRYFYWYTMIGWGTPTVCVAVWATLRLYFDDTGCWDMNDSTALWWVIKGPVVASIMVNFVLFIGIIIILVQKLQSPDTGGNESSIYLRLARSTLLLIPLFGIHYTVFAFSPENVSKRERLVFELGLGSFQGFVVAVLYCFLNGEVQAEIKRKWRSWKVNRYFAVDFKHRHPSLASSGVNGGTQLSILSKSSSQLRMSGLPADNLAT", "values": [{"measurement": "Kd", "value": 0.055, "unit": "nM"}]}]}
